Assay results published in patent US20110124552A1.

Target: mouse CCR2 on mouse cells (splenocytes, T cells, plasma cells, macrophages, EG7 lymphoma cells) (mouse) (UniProt P51683)
Test: cell-based or functional assay

UniProt P51683, sequence (P51683 whole entry): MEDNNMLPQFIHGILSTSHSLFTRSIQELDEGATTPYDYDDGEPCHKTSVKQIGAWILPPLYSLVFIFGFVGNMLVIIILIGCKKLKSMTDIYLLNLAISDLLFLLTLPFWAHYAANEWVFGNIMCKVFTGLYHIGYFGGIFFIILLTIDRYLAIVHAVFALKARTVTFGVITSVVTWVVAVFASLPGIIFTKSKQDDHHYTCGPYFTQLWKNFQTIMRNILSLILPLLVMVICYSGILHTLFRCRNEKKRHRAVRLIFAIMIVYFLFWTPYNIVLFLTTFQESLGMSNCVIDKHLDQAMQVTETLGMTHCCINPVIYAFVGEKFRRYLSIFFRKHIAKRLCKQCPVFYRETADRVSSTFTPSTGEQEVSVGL

CD4 T-cells positive for intracellular IL17: 19%
Substance: recombinant CCL2 (rCCL2, CCL2 1-76) (from UniProt P10148 24-99) (ligand)
cell death of RA-derived CD4 T-cells, PI/Annexin-V co-staining, 48 h: 15%
